Laboratory results taken from US20160158380A1 (INSERM INSTITUT NATIONAL DE LA SANTE ET DE LA RECHERCHE …, published 2016).

What was measured:
CLDN7 = biological target: T1, CLDN7 (human, UniProt O95471 1-211); assay: flow cytometry on parental SW480 cells, which express CLDN7
T1 construct: whole, on cells; Species is inferred from the human SW480 cell line
T1 sequence (looked up): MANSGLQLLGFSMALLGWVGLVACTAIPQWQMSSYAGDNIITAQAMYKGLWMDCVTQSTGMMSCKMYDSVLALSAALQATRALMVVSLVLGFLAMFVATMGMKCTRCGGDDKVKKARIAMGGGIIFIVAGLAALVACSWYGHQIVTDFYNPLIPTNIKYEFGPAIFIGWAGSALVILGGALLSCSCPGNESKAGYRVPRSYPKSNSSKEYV

human CLDN8 = biological target: T2, human CLDN8 (human, UniProt P56748 1-225); assay: flow cytometry on SW480 cells transiently transfected with human CLDN8
T2 construct: whole, on cells
T2 sequence (looked up): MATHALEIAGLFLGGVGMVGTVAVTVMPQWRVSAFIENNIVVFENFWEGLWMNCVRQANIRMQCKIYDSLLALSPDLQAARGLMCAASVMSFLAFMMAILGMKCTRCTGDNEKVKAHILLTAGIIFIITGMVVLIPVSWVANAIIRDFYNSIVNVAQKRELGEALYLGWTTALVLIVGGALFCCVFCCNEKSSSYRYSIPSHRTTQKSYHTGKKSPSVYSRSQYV
Description: (§1) Hybridomas or mAbs binding was determined with a FACScan fluorescence-activated cell sorter (Quanta apparatus, Beckman Coulter). Cells were seeded in 25 cm² flasks (2×10⁵ cells/flask). After a 48-hour rest, one million cells were pelleted, Washed with PBS-1% BSA and incubated with hybridomas or mAbs, on ice for 1 h. After washing, an appropriate anti-mouse FITC conjugated monoclonal antibody ((1:60 dilution; (Invitrogen) was added (on ice for 45 mn) to detect the primary antibodies. Direct incubation of cells with the secondary antibody was used for background measurements (negative control).
(§2) After transitory transfection on SW480 cells of human cDNA clone of CLDN8 (sc320974, Origene technologies, USA) and murine cDNA clone of CLDN1 (IRAVp968A105D, LifeScience), we analysed by FACs cross-reactivity of 6F6C3 mAb.

murine CLDN1 = biological target: T3, murine CLDN1 (murine, UniProt O88551 1-211); assay: flow cytometry on SW480 cells transiently transfected with murine CLDN1
T3 construct: whole, on cells; also called mCLDN1
T3 sequence (looked up): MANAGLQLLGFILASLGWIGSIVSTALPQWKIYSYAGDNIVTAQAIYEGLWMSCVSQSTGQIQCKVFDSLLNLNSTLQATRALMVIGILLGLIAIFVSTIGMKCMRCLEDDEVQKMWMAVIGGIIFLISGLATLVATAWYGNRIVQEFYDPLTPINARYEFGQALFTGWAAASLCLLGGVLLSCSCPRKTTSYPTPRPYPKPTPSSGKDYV
Description: as §1, §2

binding result (CLDN7): no binding (tested: 10 µg/mL) | binding result (human CLDN8): no binding (tested: 10 µg/mL) | binding result (murine CLDN1): no binding (tested: 10 µg/mL)
B1: 6F6C3 mAb (antibody, V domains shown)
VH: QIQLVQSGPELKKPGETVRISCKASGYTFTTSGMQWLQKMPGKGLKWIGWINTHFGEPKYAEDFKGRFAFSLETSASTAYLQISNLKNEDTATYFCAGAGYYGSRYFDVWGAGTTVTVSS
VL: DIVMTQSQKFMSTSVGDRVSITCKASQNVGTAVAWYQQKPGQSPKLLIYSASNRYTGVPDRFTGSGSGTDFTLTISNMQSEDLADYFCQQYSSYPLTFGGGTKLEIK
notes: Mouse hybridoma monoclonal antibody, IgG3 heavy chain and kappa light chain; also called mAb6F6C3; MAb 6F6C3
